Results on three molecules are retold here after patent publication EP4763862A1 (Beijing Tide Pharmaceutical Co., Ltd., dated 2026).

Test [1] addresses T1, B7-H2 (UniProt O75144 19-258, limits assumed).
T1 construct: not shown: His tag
T1 sequence (looked up): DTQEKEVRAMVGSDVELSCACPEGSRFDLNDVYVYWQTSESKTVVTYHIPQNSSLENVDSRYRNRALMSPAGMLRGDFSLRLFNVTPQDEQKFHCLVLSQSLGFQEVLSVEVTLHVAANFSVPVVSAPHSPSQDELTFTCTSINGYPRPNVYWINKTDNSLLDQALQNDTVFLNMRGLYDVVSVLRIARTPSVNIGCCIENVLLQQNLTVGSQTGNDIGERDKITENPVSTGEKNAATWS
The experiment in a line: ELISA, His-tagged antigen coated at 1 µg/mL, HRP-Protein A detection. Background: In an ELISA, binding on a coated surface is turned into a signal by an enzyme label.

Test [2] has as its target T2, B7-H5 (UniProt Q9H7M9 33-194).
T2 construct: The name B7-H5 is ambiguous in the literature; not shown: His tag
T2 sequence (looked up): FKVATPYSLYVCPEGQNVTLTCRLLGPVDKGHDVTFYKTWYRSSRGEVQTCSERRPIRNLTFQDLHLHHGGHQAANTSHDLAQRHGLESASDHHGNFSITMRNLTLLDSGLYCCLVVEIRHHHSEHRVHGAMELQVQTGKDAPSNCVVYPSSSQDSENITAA
The test is described as above.

The target of test [3] is T3, B7-1 (UniProt P33681 35-242).
T3 construct: not shown: His tag
T3 sequence (looked up): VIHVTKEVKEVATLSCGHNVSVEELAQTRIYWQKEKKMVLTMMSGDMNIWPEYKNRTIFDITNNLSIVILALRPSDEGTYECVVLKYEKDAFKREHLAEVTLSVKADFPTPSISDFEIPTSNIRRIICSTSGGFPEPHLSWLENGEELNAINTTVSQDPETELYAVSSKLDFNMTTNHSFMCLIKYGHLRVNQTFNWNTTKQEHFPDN
The test is described as above.

Test [4] has as its target T4, PD-L2 (UniProt Q9BQ51 20-219).
T4 construct: not shown: His tag
T4 sequence (looked up): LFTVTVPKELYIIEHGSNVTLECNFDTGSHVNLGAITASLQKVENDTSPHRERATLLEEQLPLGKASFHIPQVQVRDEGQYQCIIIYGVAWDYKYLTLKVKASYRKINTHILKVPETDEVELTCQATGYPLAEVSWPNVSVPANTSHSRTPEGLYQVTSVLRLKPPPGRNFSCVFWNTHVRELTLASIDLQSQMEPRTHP
The description is as above.

The target in test [5] is T5, B7-2 (UniProt P42081 26-247, limits assumed).
T5 construct: not shown: His tag
T5 sequence (looked up): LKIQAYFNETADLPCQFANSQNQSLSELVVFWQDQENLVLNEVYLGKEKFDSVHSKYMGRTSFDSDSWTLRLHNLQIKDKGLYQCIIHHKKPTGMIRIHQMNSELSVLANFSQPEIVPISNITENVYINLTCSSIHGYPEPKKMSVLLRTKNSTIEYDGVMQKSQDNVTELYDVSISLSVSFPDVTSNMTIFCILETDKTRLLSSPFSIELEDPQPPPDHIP
The test is described as above.

For test [6], the target named is T6, B7-H7 (UniProt Q9UM44 23-344).
T6 construct: not shown: His tag
T6 sequence (looked up): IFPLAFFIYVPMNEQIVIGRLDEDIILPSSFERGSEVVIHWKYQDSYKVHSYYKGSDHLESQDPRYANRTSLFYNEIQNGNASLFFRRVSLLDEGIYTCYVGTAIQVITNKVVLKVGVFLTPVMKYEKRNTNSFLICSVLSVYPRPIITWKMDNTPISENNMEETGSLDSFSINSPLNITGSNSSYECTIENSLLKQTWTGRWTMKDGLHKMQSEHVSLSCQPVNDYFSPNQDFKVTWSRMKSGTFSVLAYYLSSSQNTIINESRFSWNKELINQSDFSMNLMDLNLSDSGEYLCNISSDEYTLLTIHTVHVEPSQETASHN
The test is described as above.

Test [7] concerns the target T7, B7-H4 (UniProt Q7Z7D3 29-258, limits assumed).
T7 construct: not shown: His tag
T7 sequence (looked up): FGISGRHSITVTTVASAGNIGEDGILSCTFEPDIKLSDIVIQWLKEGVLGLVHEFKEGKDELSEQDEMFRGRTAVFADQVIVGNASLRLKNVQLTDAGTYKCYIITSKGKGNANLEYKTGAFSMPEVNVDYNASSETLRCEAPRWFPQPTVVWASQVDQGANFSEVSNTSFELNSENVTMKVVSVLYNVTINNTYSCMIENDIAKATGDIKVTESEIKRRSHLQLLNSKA
The test is described as above.

Test [8] deals with T8, B7-H6 (UniProt Q68D85 25-262).
T8 construct: not shown: His tag
T8 sequence (looked up): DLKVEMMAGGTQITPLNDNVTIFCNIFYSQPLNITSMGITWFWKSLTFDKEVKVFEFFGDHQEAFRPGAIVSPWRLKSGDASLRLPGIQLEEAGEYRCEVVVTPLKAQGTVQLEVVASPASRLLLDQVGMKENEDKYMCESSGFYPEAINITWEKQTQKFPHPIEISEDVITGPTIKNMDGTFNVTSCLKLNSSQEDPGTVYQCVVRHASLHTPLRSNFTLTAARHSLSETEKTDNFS
The description is as above.

Test [9] addresses T9, hB7-H1 (PD-L1) (human, UniProt Q9NZQ7 19-238).
T9 construct: Species read from the printed prefix h; not shown: His tag
The test is described as above.

Test [10] concerns the target T10, B7-H3 Cyno-His (cynomolgus monkey).
T10 construct: also called cynomolgus monkey B7-H3
In words: SPR, Biacore 8K, antibody captured by anti-human IgG Fc on CM5, B7-H3 Cyno-His as analyte, 1:1 model. (In general: Surface plasmon resonance follows binding to a sensor surface in real time, without labels.)

Test [11] addresses T11, B7-H3 on NCI-H446 cells (UniProt Q5ZPR3 29-534).
T11 construct: whole, on cells
T11 sequence (looked up): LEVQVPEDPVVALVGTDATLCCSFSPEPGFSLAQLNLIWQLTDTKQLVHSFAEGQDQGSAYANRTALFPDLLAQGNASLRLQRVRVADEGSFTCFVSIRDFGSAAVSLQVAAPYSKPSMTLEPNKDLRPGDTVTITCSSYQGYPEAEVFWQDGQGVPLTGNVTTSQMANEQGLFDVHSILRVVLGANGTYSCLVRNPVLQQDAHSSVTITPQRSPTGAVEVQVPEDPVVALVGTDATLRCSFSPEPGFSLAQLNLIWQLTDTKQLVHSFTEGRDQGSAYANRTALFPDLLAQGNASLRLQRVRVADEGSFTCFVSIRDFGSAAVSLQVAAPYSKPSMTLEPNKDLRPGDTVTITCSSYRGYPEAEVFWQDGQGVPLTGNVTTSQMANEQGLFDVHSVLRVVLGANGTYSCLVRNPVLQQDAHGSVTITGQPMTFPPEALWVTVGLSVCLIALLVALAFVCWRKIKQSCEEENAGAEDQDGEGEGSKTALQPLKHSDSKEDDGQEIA
In words: flow cytometry on NCI-H446 cells, goat anti-human Fc secondary.

T9 sequence (Q9NZQ7 19-238 limits assumed): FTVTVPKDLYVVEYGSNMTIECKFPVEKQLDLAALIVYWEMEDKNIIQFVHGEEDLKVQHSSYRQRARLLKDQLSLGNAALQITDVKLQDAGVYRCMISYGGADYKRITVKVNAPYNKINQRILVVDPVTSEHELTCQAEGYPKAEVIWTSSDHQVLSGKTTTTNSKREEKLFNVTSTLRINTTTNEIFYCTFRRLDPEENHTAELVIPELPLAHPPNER

B1: cAb1-z3-p7 (antibody, human IgG1, kappa, V domains shown)
VH: EVQLVESGGGLVKPGGSLRLSCAASGFTFSSYGMSWVRQAPGKRLEWVSSISGSGSYTYYPDSLKGRFTISRDNAKNSLYLQMNSLRAEDTAVYYCARQQGYWYFDVWGQGTTVTVSS
VL: DVVMTQTPLSLPVTPGEPASISCRASQSLASSYGKTYLSWYLQKPGQSPQLLIYGISNRFSGVPDRFSGSGSGTDFTLKISRVEAEDVGVYYCLHGTHQPLTFGQGTKLEIKR
notes: Humanized from 48-B4-F4-E4; Human IgG1 / kappa; also called cAbl-z3-p7
Take B1: the binding result in test [1], in [2], in [3], in [4], in test [5] and in [6] was “no binding (tested: starting concentration 10 µg/ml)” in each case. Further, the binding result in test [7], in test [8] and in [9] was “no binding (tested: starting concentration 10 µg/ml)” in each case. Moreover, the Kd (usually the free concentration of one partner at which half of the binding sites on the other are occupied at equilibrium, for simple one-to-one binding) in test [10] is 3.87 nM. Besides, the koff (usually the first-order rate constant of dissociation) in [10] stood at 5.82e-05 s⁻¹. For the same molecule, in test [10], the kon (as a rule, a measure of how fast the partners come together) turned out to be 15100 M⁻¹ s⁻¹. In addition, a half-maximal response in test [11] (EC50) required 4.66 nM.

B2: cAb1-z0-p7 (antibody, human IgG1, kappa, V domains shown)
VH: EVQLVESGGGLVKPGGSLRLSCAASGFTFSSYGMSWVRQAPGKGLEWVSSISGSGSYTYYPDSLKGRFTISRDNAKNSLYLQMNSLRAEDTAVYYCARQQGYWYFDVWGQGTTVTVSS
VL: DIVMTQTPLSLPVTPGEPASISCRASQSLASSYGKTYLSWYLQKPGQSPQLLIYGISNRFSGVPDRFSGSGSGTDFTLKISRVEAEDVGVYYCLHGTHQPLTFGQGTKLEIKR
notes: Humanized from 48-B4-F4-E4; Human IgG1 / kappa
As to B2, the binding result in test [1], in [2], in test [3], in test [4], in [5] and in test [6] was “no binding (tested: starting concentration 10 µg/ml)” in each case. For the same molecule, the binding result in test [7], in test [8] and in [9] was “no binding (tested: starting concentration 10 µg/ml)” each time. This molecule also had a dissociation constant Kd in test [10] of 7.86 nM. The molecule further returned a dissociation rate constant (koff) in [10] of 7.68e-05 s⁻¹. In addition, the association rate constant (kon) in test [10] is 9770 M⁻¹ s⁻¹. The EC50 (as a rule, the concentration that produces a half-maximal response) in test [11] was 9.7 nM.

B3: cAb1-z5-p7 (antibody, human IgG1, kappa, V domains shown)
VH: EVQLVESGGGLVKPGGSLRLSCAASGFTFSSYGMSWVRQAPGKRLEWVASISGSGSYTYYPDSLKGRFTISRDNAKNSLYLQMNSLRAEDTAVYYCARQQGYWYFDVWGQGTTVTVSS
VL: DVVMTQTPLSLPVTPGEPASISCRASQSLASSYGKTYLSWYLQKPGQSPQLLIYGISNRFSGVPDRFSGSGSGTDFTLKISRVEAEDVGVYYCLHGTHQPLTFGQGTKLEIKR
notes: Humanized from 48-B4-F4-E4; Human IgG1 / kappa; also called cAbl-z5-p7
As to B3, the binding result in [1], in test [2], in [3], in test [4], in [5] and in [6] was “no binding (tested: starting concentration 10 µg/ml)” each time. The binding result in [7], in [8] and in test [9] was “no binding (tested: starting concentration 10 µg/ml)” each time. The same molecule returned a Kd in [10] of 3.9 nM. This molecule also gave a koff in [10] of 6.17e-05 s⁻¹. Besides, the on-rate (kon) in test [10] is 15800 M⁻¹ s⁻¹. This molecule yielded a 50% effective concentration (EC50) in test [11] of 3.69 nM.
